In article PMC11582626 (Nature Communications, 2024):

Experiments:
[1] = target: RSV B18537 prefusion-stabilized F glycoprotein variant sc9-10 DS-Cav1 (respiratory syncytial virus strain B18537); test: cryo-EM structure
[2] = target: RSV A2 prefusion-stabilized F glycoprotein variant DS-Cav1 (respiratory syncytial virus strain A2); test: cryo-EM structure
[3] = target: h5B11-YTE, h5B11 with the YTE mutation (M252Y/S254T/T256E) in the Fc region (human); test: SPR
[4] = target: T1, RSV B18537 prefusion-stabilized F glycoprotein variant DS-Cav1 (Human respiratory syncytial virus B, …, stabilised); test: SPR
T1 chain 1: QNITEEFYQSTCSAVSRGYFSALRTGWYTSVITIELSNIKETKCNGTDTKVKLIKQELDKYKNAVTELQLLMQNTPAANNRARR
T1 chain 2: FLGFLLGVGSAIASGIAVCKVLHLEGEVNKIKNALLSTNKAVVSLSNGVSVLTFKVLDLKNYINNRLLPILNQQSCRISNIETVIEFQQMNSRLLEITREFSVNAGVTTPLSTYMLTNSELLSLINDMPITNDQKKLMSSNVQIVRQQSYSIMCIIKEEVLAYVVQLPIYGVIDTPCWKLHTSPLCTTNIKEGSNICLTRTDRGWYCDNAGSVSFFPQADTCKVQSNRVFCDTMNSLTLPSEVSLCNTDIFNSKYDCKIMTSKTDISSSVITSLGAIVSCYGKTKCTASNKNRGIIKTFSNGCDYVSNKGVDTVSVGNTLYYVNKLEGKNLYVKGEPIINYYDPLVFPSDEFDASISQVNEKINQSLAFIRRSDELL

[5] = target: RSV A2 post-fusion F protein (Human respiratory syncytial virus A, …, UniProt P03420); test: ELISA
Chain of RSV A2 post-fusion F protein (P03420 whole entry, looked up, the tested form may be a part): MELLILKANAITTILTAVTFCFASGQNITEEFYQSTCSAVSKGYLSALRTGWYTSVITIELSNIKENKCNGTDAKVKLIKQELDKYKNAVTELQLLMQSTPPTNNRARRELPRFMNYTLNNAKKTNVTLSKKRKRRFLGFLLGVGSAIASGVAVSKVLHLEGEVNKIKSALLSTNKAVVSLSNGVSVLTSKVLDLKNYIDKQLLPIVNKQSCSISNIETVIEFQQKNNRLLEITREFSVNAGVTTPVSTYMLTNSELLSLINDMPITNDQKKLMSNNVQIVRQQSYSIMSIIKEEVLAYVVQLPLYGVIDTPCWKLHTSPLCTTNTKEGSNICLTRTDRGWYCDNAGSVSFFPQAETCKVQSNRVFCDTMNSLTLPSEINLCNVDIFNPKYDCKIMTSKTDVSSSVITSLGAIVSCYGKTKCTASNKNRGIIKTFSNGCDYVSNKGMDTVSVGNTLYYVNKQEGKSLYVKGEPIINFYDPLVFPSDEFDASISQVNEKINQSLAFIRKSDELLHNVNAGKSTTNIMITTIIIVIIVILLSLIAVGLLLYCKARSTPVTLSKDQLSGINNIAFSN

[6] = target: RSV B18537 post-fusion F protein (Human respiratory syncytial virus B, …, UniProt P13843); test: ELISA
Chain of RSV B18537 post-fusion F protein (P13843 whole entry, looked up, the tested form may be a part, one chain of several): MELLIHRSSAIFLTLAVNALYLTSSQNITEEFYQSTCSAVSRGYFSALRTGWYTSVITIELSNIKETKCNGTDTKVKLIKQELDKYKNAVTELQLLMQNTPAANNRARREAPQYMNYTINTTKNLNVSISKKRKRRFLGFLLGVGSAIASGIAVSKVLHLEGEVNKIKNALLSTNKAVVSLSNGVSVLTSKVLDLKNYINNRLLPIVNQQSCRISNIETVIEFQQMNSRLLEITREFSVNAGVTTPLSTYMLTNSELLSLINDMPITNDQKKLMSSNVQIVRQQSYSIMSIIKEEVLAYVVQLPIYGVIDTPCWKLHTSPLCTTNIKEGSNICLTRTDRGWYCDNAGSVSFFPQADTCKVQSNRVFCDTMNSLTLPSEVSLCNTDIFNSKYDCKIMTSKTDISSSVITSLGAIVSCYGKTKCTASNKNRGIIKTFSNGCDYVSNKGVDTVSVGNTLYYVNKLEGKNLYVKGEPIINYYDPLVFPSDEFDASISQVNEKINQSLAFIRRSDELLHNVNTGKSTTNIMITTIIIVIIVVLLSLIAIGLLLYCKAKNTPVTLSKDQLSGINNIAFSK

[7] = target: RSV B18537 prefusion-stabilized F glycoprotein variant DS-Cav1 (respiratory syncytial virus strain B18537)
[8] = target: RSV B18537 prefusion-stabilized F glycoprotein variant DS-Cav1 (respiratory syncytial virus strain B18537); test: SPR

## RSV B18537 prefusion-stabilized F glycoprotein variant sc9-10 DS-Cav1 (natural protein)
[1]
  stoichiometry N: 3

## RSV A2 prefusion-stabilized F glycoprotein variant DS-Cav1 (natural protein)
[2]
  stoichiometry N: 3

## human neonatal FcR (hFcRn) (from UniProt P55899;P61769) (receptor)
[3]
  fold increase in affinity over h5B11-WT: 8 fold

B1: 5B11 Fab (antigen-binding fragment of murine 5B11) (Fab, V domains shown)
VH: QIQLVQSGPELKKPGETVKISCKASGYTFTDYSMHWLKQAPGKGLKWMGWITTETGEPTYADDFKGRFAFSLETSASTAYLQINNLKNEDTGIYFCARYYYGPFYWGQGTLVTVST
VL: DIQMTQSPASLSASVGETVTITCRSSGNIHNFLTWYQQKQGKSPQFLVYNAKTLADGVSSRFSGSGSGTQFSLKINSLQPEDFGIYYCQHFWTTPYTFGGGTKLEIK
[4]
  Kd: 124 pM

B2: h5B11, humanized version of 5B11 (human IgG1, kappa) (antibody, V domains shown)
VH: QIQLVQSGPELKKPGASVKISCKASGYTFTDYSMHWLKQAPGKGLKWMGWITTETGEPTYADDFKGRFAFSLDTSASTAYLQISSLKAEDTGVYFCARYYYGPFYWGQGTLVTVSS
VL: DIQMTQSPSSLSASVGDRVTITCRSSGNIHNFLTWYQQKPGKSPQFLVYNAKTLADGVPSRFSGSGSGTQFTLTISSLQPEDFGIYYCQHFWTTPYTFGGGTKVEIK
[5]
  binding result: no binding
[6]
  binding result: no binding

B3: 5B11, murine monoclonal antibody (mouse IgG2a, kappa) (antibody, V domains shown)
VH: QIQLVQSGPELKKPGETVKISCKASGYTFTDYSMHWLKQAPGKGLKWMGWITTETGEPTYADDFKGRFAFSLETSASTAYLQINNLKNEDTGIYFCARYYYGPFYWGQGTLVTVST
VL: DIQMTQSPASLSASVGETVTITCRSSGNIHNFLTWYQQKQGKSPQFLVYNAKTLADGVSSRFSGSGSGTQFSLKINSLQPEDFGIYYCQHFWTTPYTFGGGTKLEIK
[5]
  binding result: no binding
[6]
  binding result: no binding

B4: nirsevimab (biosimilar, human IgG1, kappa) (antibody, V domains shown)
VH: QVQLVQSGAEVKKPGSSVMVSCQASGGLLEDYIINWVRQAPGQGPEWMGGIIPVLGTVHYGPKFQGRVTITADESTDTAYMELSSLRSEDTAMYYCATETALVVSETYLPHYFDNWGQGTLVTVSS
VL: DIQMTQSPSSLSAAVGDRVTITCQASQDIVNYLNWYQQKPGKAPKLLIYVASNLETGVPSRFSGSGSGTDFSLTISSLQPEDVATYYCQQYDNLPLTFGGGTKVEIK
[7]
  plaque reduction neutralization of RSV B18537, IC50: 0.0285 µg/mL

B5: nirsevimab Fab (Fab, V domains shown)
VH: QVQLVQSGAEVKKPGSSVMVSCQASGGLLEDYIINWVRQAPGQGPEWMGGIIPVLGTVHYGPKFQGRVTITADESTDTAYMELSSLRSEDTAMYYCATETALVVSETYLPHYFDNWGQGTLVTVSS
VL: DIQMTQSPSSLSAAVGDRVTITCQASQDIVNYLNWYQQKPGKAPKLLIYVASNLETGVPSRFSGSGSGTDFSLTISSLQPEDVATYYCQQYDNLPLTFGGGTKVEIK
[8]
  Kd: > 800000 pM
